Data on 18 molecules can be found in patent US20240101674A1 (OTTIMO PHARMA, published 2024).

Substitutions are numbered along the chain they refer to. Names and notes keep the numbering of the source. Where only a bound is given, the exact number is not on record here.

In test [1] the target is T1, cynomolgus monkey PD1 human Fc tagged recombinant protein (cynomolgus monkey, UniProt Q15116 25-170 (human entry), limits assumed).
T1 construct: also called cyno PD1-Fc; cyno PD1; not shown: human Fc tag
T1 chain: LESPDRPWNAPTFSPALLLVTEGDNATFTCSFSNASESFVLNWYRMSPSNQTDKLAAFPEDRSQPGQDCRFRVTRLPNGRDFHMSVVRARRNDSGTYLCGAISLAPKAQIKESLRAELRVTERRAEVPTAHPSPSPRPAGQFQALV
Description: periprep Fab direct binding ELISA (FIG. 1). For orientation: An ELISA detects its analyte on a solid surface through an enzyme-linked reagent.

Test [2] has as its target T2, human VEGFR2 protein (human, UniProt P35968 20-764).
T2 construct: Recombinant protein used in ELISA; also called hu VEGFR2; KDR
Kind of test: periprep Fab direct binding ELISA (FIG. 1).

Test [3] deals with T3, rhesus VEGFR2 protein (rhesus monkey).
T3 construct: Recombinant protein used in ELISA; also called rhesus monkey VEGFR2; rh VEGFR2
T3 chain: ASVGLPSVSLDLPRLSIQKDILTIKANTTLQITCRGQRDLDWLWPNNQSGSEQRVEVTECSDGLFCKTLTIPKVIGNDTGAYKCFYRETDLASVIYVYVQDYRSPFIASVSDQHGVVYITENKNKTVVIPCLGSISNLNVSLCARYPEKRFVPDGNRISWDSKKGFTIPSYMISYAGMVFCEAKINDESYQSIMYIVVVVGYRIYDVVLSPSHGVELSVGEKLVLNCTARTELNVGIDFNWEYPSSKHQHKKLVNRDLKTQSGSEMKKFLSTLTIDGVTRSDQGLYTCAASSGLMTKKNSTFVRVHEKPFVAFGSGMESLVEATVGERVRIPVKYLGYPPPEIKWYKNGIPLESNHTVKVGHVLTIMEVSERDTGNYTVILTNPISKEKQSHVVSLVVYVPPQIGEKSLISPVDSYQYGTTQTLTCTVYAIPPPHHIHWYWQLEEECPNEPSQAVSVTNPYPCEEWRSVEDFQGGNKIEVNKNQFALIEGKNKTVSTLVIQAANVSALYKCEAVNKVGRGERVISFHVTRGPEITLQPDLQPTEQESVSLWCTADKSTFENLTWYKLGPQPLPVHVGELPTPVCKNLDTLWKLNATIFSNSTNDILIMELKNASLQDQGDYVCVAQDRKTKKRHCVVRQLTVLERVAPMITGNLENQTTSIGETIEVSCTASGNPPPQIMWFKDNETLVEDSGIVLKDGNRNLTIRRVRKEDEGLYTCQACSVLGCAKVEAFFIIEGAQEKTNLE
Kind of test: periprep Fab direct binding ELISA (FIG. 1).

Test [4] deals with T4, biotinylated human PD1-His/AviTag (human, UniProt Q15116 25-170, limits assumed, biotinylated).
T4 construct: also called human PD1 protein (Alphascreen); not shown: His/AviTag
Description: Alphascreen epitope competition, Fab periprep; competitor hMAb005 IgG1 null on biotinylated human PD1-His/AviTag. Here is the method:
FIG. 2A-FIG. 2B. Epitope competition analysis of Fab proteins in Alphascreen Anti-PD1 clones were expressed as Fab in E. coli and peripreps were applied in an epitope competition assay using Alphascreen technology.
The AlphaScreen assay (Perkin Elmer) was performed in a 25 μl final volume in 384-well white microtiter plates (Greiner). The reaction buffer contained 1×PBS pH 7.3 (Oxoid, Cat. nr. BR0014G) and 0.05% (v/v) Tween® 20 (Sigma, Cat. nr. P9416). Periprep samples diluted in reaction buffer were incubated with biotinylated human PD1-His/AviTag at 0.6 nM final concentration for 20 minutes at room temperature. […] The emission of light was measured in the EnVision multilabel plate reader (Perkin Elmer) and analysed using the EnVision manager software. Values were reported as Counts Per Second (CPS) and corrected for crosstalk. Signal reduction percentages were calculated relative to the irrelevant sample.
(Alpha assays give light when donor and acceptor beads are brought close together.)

In test [5] the target is T5, human PD1 human Fc tagged recombinant protein (human, UniProt Q15116 25-170).
T5 construct: also called human PD1-Fc; hu PD1; not shown: human Fc tag
Kind of test: direct titration ELISA, IgG1 null on coated PD1-Fc (FIG. 3A). Here is the method: (§1) Binding and cross-reactivity of the lead panel to the recombinant proteins was initially assessed by binding ELISA. The human PD1 human Fc tagged recombinant protein and the cynomolgus monkey PD1 human Fc tagged recombinant protein were coated to the surface of MaxiSorp™ flat-bottom 96 well plate at 1 μg/ml. The purified Fab or IgG samples were titrated in two fold serial dilutions starting from 500 nM to 0.98 nM and allowed to bind to the coated antigens. The Fabs were detected using mouse anti-c-myc antibody followed by donkey anti-mouse IgG conjugated to horseradish peroxidase. The IgGs were detected using the mouse anti-human IgG conjugated to horseradish peroxidase. Binding signals were visualized with 3,3′,5,5′-Tetramethylbenzidine Substrate Solution (TMB) and the absorbance measured at 450 nm.

For test [6], the target named is T1, cynomolgus monkey PD1 human Fc tagged …. The test is described as above. On the procedure:
as §1

Test [7] concerns the target T2, human VEGFR2 protein. Description: direct titration ELISA, IgG1 null on VEGFR2 protein (FIG. 3B).
Test [8] deals with T3, rhesus VEGFR2 protein. The description is as above.
Test [9] deals with T2, human VEGFR2 protein. Description: direct titration ELISA, IgG1 null on VEGFR2 protein (FIG. 12C).

T4 sequence (Q15116 25-170 limits assumed): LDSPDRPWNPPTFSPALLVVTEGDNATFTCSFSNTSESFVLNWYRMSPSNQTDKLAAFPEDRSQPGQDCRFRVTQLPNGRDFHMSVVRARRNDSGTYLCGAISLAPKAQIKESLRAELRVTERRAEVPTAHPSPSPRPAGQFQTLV
T5 sequence (Q15116 25-170 limits assumed): as above

B1: MAB02D08 Fab (Fab, V domains shown)
VH: EVQLVESGGGLVQPGGSLRLSCAASGFTFSSYMMSWVRQAPGKGLEWVATISGGGANTYYPDSVKGRFTISRDNAKNSLYLQMNSLRAEDTAVYYCARQLYYFDYWGQGTTVTVSS
VL: DIQMTQSPSSLSASVGDRVTITCLASQESGIWLSWYQQKPGKAPKLLIYTATSLADGVPSRFSGSGSGTDFTLTISSLQPEDFATYYCQQVYSIPWTFGGGTKVEIK
notes: Library-derived clone screened as human IgG1-kappa Fab in E. coli periplasmic extract; also called MAB02D08 (periprep Fab)
With B1, the binding result (in test [1]; in the test with human VEGFR2 protein [2]; in the test with rhesus VEGFR2 protein [3]) was “binds” each time. For the same molecule, the “percentage signal reduction of hMAb005/PD1 interaction” value (from here on “percentage signal reduction”) in [4] was over 75%.

B2: MAB06 IgG1 null (antibody, V domains shown)
VH: B1 VH
VL: B1 VL with Y92S, S93V, I94T, W96F
notes: Human IgG1 null format (L234A, L235A, G237A) with human C kappa; only variable domains are tied to the clone
With B2, the binding result (in [5]; in test [6]; with human VEGFR2 protein [7]; with rhesus VEGFR2 protein [8]) was “binds” throughout.

B3: hMAb005 IgG1 null (antibody, V domains shown)
VH: B1 VH
VL: B1 VL with E28T, S29I, I31T, S34T
notes: Tested as human IgG1 null (L234A, L235A, G237A) with human C kappa; also called humanized MAb005
On to B3, for which the binding result in test [5] and in test [6] was “binds” each time.

B4: MAB04 IgG1 null (antibody, V domains shown)
VH: B1 VH
VL: B1 VL with E28G, S29I, I31P, Y92S, S93V, I94T, W96F
notes: as for B2
Regarding B4, the binding result (in test [5]; in [6]; in the test with human VEGFR2 protein [7]; with rhesus VEGFR2 protein [8]) was “binds” throughout.

B5: MAB06.8.2 IgG1 null (antibody, V domains shown)
VH: B1 VH with M33L, A56S, T58K, P61V, L100V
VL: B1 VL with L24R, T50A, T52S, A55Q, D56S, Y92S, S93V, I94T, W96F
notes: Human IgG1 null format; only variable domains are tied to the clone
Regarding B5, in the test with human VEGFR2 protein [9], the binding result is “binds”.

B6: MAB02B03 IgG1 null (antibody, V domains shown)
VH: B1 VH
VL: B1 VL with E28P, S29L
notes: as for B2
Turning to B6, the binding result (in test [6]; with human VEGFR2 protein [7]; with rhesus VEGFR2 protein [8]) was “binds” each time.

B7: MAB05E08 IgG1 null (antibody, V domains shown)
VH: B1 VH
VL: B1 VL with E28T, S29I, I31T, S34T, Y92S, S93V, I94T, W96F
notes: as for B2
With B7, the binding result (in test [6]; in the test with human VEGFR2 protein [7]; in the test with rhesus VEGFR2 protein [8]) was “binds” each time.

B8: MAB02D08 IgG1 null (antibody, V domains shown)
VH: B1 VH
VL: B1 VL
notes: as for B2
Turning to B8, the binding result (in [6]; in the test with human VEGFR2 protein [7]; in the test with rhesus VEGFR2 protein [8]) was “binds” throughout.

B9: MAB02A03 IgG1 null (antibody, V domains shown)
VH: B1 VH
VL: B1 VL with P8S, E28G, S29I, I31P
notes: as for B2
Regarding B9, the binding result (in test [6]; in the test with human VEGFR2 protein [7]; in the test with rhesus VEGFR2 protein [8]) was “binds” throughout.

B10: MAB02 IgG1 null (antibody, V domains shown)
VH: B1 VH
VL: B1 VL with E28P, S29L, Y92A, S93E, I94L, W96F, T97G
notes: as for B2
With B10, the binding result in [5] and in [6] was “binds” in each case.

B11: MAB05E08 Fab (Fab, V domains shown)
VH: B1 VH
VL: B1 VL with E28T, S29I, I31T, S34T, Y92S, S93V, I94T, W96F
notes: Library-derived clone screened as human IgG1-kappa Fab in E. coli periplasmic extract; also called MAB05E08 (periprep Fab)
With B11, the binding result (in test [1]; with human VEGFR2 protein [2]; in the test with rhesus VEGFR2 protein [3]) was “binds” in each case. In addition, the “percentage signal reduction” value in [4] is over 75%.

B12: MAB06.8.6 IgG1 null (antibody, V domains shown)
VH: B1 VH with M33L, A56S, T58K, P61V, F103Y
VL: B1 VL with L24R, T50A, T52S, A55Q, D56S, Y92S, S93V, I94T, W96F
notes: as for B5
In the case of B12, the binding result in the test with human VEGFR2 protein [9] is recorded as “binds”.

B13: MAB02A03 Fab (Fab, V domains shown)
VH: B1 VH
VL: B1 VL with P8S, E28G, S29I, I31P
notes: Library-derived clone screened as human IgG1-kappa Fab in E. coli periplasmic extract; also called MAB02A03 (periprep Fab)
B13: the binding result (in test [1]; in the test with human VEGFR2 protein [2]; with rhesus VEGFR2 protein [3]) was “binds” throughout. Besides, the “percentage signal reduction” value in test [4] was determined as 75%.

B14: MAB01 IgG1 null (antibody, V domains shown)
VH: B1 VH
VL: B1 VL with E28G, S29I, I31P, Y92A, S93E, I94L, W96F, T97G
notes: as for B2
As to B14, the binding result (in test [5]; in [6]; with human VEGFR2 protein [7]; with rhesus VEGFR2 protein [8]) was “binds” each time.

B15: MAB05G03 IgG1 null (antibody, V domains shown)
VH: B1 VH
VL: B1 VL with E28T, S29I, I31T, S34T, Y92A, S93E, I94L, W96F, T97G
notes: as for B2
For B15, the binding result (in test [6]; with human VEGFR2 protein [7]; with rhesus VEGFR2 protein [8]) was “binds” each time.

B16: MAB05G03 Fab (Fab, V domains shown)
VH: B1 VH
VL: B1 VL with E28T, S29I, I31T, S34T, Y92A, S93E, I94L, W96F, T97G
notes: Library-derived clone screened as human IgG1-kappa Fab in E. coli periplasmic extract; also called MAB05G03 (periprep Fab)
As for B16, the binding result (in test [1]; in the test with human VEGFR2 protein [2]; with rhesus VEGFR2 protein [3]) was “binds” throughout. In addition, the “percentage signal reduction” value in test [4] was over 75%.

B17: MAB02B03 Fab (Fab, V domains shown)
VH: B1 VH
VL: B1 VL with E28P, S29L
notes: Library-derived clone screened as human IgG1-kappa Fab in E. coli periplasmic extract; also called MAB02B03 (periprep Fab)
For B17, the binding result (in [1]; with human VEGFR2 protein [2]; with rhesus VEGFR2 protein [3]) was “binds” each time. In addition, in [4], the “percentage signal reduction” value is over 75%.

B18: MAB05 IgG1 null (antibody, V domains shown)
VH: B1 VH
VL: B1 VL with E28P, S29L, Y92S, S93V, I94T, W96F
notes: as for B2
On to B18, for which the binding result (in test [5]; in test [6]; with human VEGFR2 protein [7]; with rhesus VEGFR2 protein [8]) was “binds” throughout.
